In patent US8962344B2, “Membrane-coated particles” (Synamem Corporation, priority 2008, dated 2015):

Experiments:
[1] = target: T1, transferrin receptor (Cricetulus griseus, UniProt Q07891); assay: Ligand binding and displacement assay on membrane-coated particles (fluorescence microscopy); parameters: species or system Chinese Hamster
T1 construct: present endogenously in membrane-coated particles derived from CHO cell membranes; endogenous in cells; host or cells: CHO cell membranes deposited on silica microspheres
Procedure: (§1) The binding of transferrin to its receptor was studied for ligand/receptor interactions, present endogenously in membrane-coated particles derived from CHO cell membranes (Example 1). Freshly-prepared membrane-coated particles were resuspended in 1 ml of binding buffer (10 mM Tris-HCl pH 7.4, 100 mM NaCl). Beads were subsequently pelleted and resuspended in 1 ml of blocking buffer (0.1% w/v casein in binding buffer), and incubated at room temperature for 15 minutes with rotation. Beads were pelleted and resuspended in 980 μL of binding buffer. At this time, any inhibitors or antagonists (e.g. excess of unlabeled transferrin) could have been added for a pre-incubation step. ALEXA FLUOR® 488-conjugated human holotransferrin was added to the membrane-coated particles at a final concentration of 10 μg/ml, followed by incubation at room temperature for 15 minutes with rotation. Following the incubation with transferrin, the beads were washed twice with binding buffer in preparation for viewing using fluorescence microscopy (same microscope apparatus as described in Example 1). The accessibility of membrane proteins (in this case the transferrin receptor) to interact with various ligands and test agents (in this case transferrin) is shown by the results (see FIGS. 2A-2E).

[2] = Labeled ligand binding to bare silica beads (control for non-specific binding); conditions: silica beads devoid of membranes; FIG. 2C
Procedure: as §1

T1 sequence (Q07891 whole entry): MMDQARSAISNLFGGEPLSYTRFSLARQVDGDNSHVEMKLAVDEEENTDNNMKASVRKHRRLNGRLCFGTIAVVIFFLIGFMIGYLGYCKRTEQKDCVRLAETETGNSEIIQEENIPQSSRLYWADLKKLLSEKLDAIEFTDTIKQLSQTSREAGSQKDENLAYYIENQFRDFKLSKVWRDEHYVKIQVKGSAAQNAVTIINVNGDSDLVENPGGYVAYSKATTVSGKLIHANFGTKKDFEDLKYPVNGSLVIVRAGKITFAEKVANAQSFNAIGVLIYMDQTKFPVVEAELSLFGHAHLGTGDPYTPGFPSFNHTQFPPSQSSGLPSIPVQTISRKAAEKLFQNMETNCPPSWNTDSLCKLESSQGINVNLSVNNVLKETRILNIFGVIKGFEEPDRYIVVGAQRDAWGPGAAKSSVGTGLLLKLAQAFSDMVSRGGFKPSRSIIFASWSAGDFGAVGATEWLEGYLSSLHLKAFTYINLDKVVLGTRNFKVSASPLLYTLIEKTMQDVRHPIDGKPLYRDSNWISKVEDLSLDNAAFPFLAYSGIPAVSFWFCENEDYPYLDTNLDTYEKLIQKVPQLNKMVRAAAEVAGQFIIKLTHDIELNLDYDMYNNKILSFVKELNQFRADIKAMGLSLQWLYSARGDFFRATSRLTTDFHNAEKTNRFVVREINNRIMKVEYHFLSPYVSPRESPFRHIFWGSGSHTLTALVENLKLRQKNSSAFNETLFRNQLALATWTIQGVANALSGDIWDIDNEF

Row | binding of fluorescently-labeled transferrin to the membrane-coated particles ([1]; endogenously-expressed transferrin receptor, CHO cell membranes on silica beads, 10 μg/ml, room temperature, 15 minutes, FIG. 2A) | interaction of fluorescently-labeled transferrin with bare silica [2] | competition of labeled transferrin binding ([1]; 100-fold molar excess of unlabeled transferrin, CHO membrane-coated particles, FIG. 2B) | Substance
1 | binds efficiently | does not interact appreciably | – | fluorescently-labeled transferrin: ALEXA FLUOR® 488-conjugated human holotransferrin, labeled ligand of the transferrin receptor
2 | – | – | readily competed away | unlabeled transferrin: unlabeled transferrin used in excess as competitor of labeled transferrin binding
